Test results from US20130059781A1 (Novo Nordisk, published 2013).
Numbered stars: 1 amine (or outer) side, 2 acyl side, 3 side chain; on linkers, the order of the positions; unused ones are H or OH. Side chains are listed from the residue outwards. Ends that are not written are not given here. * marks the point of attachment. C18 diacid = O=C(O)CCCCCCCCCCCCCCCCC(=O)*; γGlu = O=C(O)[C@H](CCC(=O)[*:2])N[*:1]; AEEA = NCCOCCOCC(=O)O

B1: N-α-#-[Leu15] Gastrin-17 (13-17) (peptide)
peptide: {C18 diacid-γGlu-AEEA-AEEA}-GWLDF-NH2
SMILES: CC(C)C[C@H](NC(=O)[C@H](Cc1c[nH]c2ccccc12)NC(=O)CNC(=O)COCCOCCNC(=O)COCCOCCNC(=O)CC[C@H](NC(=O)CCCCCCCCCCCCCCCCC(=O)O)C(=O)O)C(=O)N[C@@H](CC(=O)O)C(=O)N[C@@H](Cc1ccccc1)C(N)=O
B2: N-α-#-[Leu15] Gastrin-17 (15-17) (peptide)
peptide: {C18 diacid-γGlu-AEEA-AEEA}-Leu-Asp-Phe-NH2
SMILES: CC(C)C[C@H](NC(=O)COCCOCCNC(=O)COCCOCCNC(=O)CC[C@H](NC(=O)CCCCCCCCCCCCCCCCC(=O)O)C(=O)O)C(=O)N[C@@H](CC(=O)O)C(=O)N[C@@H](Cc1ccccc1)C(N)=O
B3: N-α-#-[Leu15] Gastrin-17 (14-17) (peptide)
peptide: {C18 diacid-γGlu-AEEA-AEEA}-WLDF-NH2
SMILES: CC(C)C[C@H](NC(=O)[C@H](Cc1c[nH]c2ccccc12)NC(=O)COCCOCCNC(=O)COCCOCCNC(=O)CC[C@H](NC(=O)CCCCCCCCCCCCCCCCC(=O)O)C(=O)O)C(=O)N[C@@H](CC(=O)O)C(=O)N[C@@H](Cc1ccccc1)C(N)=O
B4: N-α-#-Gastrin-17 (16-17) (peptide)
peptide: {C18 diacid-γGlu-AEEA-AEEA}-Asp-Phe-NH2
SMILES: NC(=O)[C@H](Cc1ccccc1)NC(=O)[C@H](CC(=O)O)NC(=O)COCCOCCNC(=O)COCCOCCNC(=O)CC[C@H](NC(=O)CCCCCCCCCCCCCCCCC(=O)O)C(=O)O

Molecular target: CCK2 receptor (gastrin receptor)
Assay: cell-based or functional assay

| Binder | Relative Receptor Potency |
| --- | --- |
| {C18 diacid-γGlu-AEEA-AEEA}-QGPWLEEEEEAYGWLDF-NH2 (ends and bridges not checked) [N-α-#-[Leu15] Gastrin-17] | 57 |
| QGPK([AEEA-AEEA-γGlu-C18 diacid])LEEEEEAYGWLDF-NH2 (ends and bridges not checked) [[Lys4(N-ε-#),Leu15] Gastrin-17] | 30 |
| QGPWLK([AEEA-AEEA-γGlu-C18 diacid])EEEEAYGWLDF-NH2 (ends and bridges not checked) [[Lys6(N-ε-#),Leu15] Gastrin-17] | 40 |
| QGPWLEEEEEAYGK([AEEA-AEEA-γGlu-C18 diacid])LDF-NH2 (ends and bridges not checked) [[Lys14(N-ε-#),Leu15] Gastrin-17] | 0 |
| QGPWLEEEEEAYGWK([AEEA-AEEA-γGlu-C18 diacid])DF-NH2 (ends and bridges not checked) [[Lys15(N-ε-#)] Gastrin-17] | 0 |
| QGPWLEEEEEAYGWLDK([AEEA-AEEA-γGlu-C18 diacid])-NH2 (ends and bridges not checked) [[Lys17(N-ε-#), Leu 15] Gastrin-17] | 0 |
| QGPWLEEEEEAK([AEEA-AEEA-γGlu-C18 diacid])GWLDF-NH2 (ends and bridges not checked) [[Lys12(N-ε-#),Leu15] Gastrin-17] | 6 |
| QGK([AEEA-AEEA-γGlu-C18 diacid])WLEEEEEAYGWLDF-NH2 (ends and bridges not checked) [[Lys3(N-ε-#),Leu15] Gastrin-17] | 60 |
| QGPWLEEEEEAYGWLDF-NH2 (ends and bridges not checked) [[Leu15] Gastrin-17] | 100 |
| QGPWLEEEEEAYGWLK([AEEA-AEEA-γGlu-C18 diacid])F-NH2 (ends and bridges not checked) [[Lys16(N-ε-#),Leu15] Gastrin-17] | 0 |
| QGPWLEEEEEAYK([AEEA-AEEA-γGlu-C18 diacid])WLDF-NH2 (ends and bridges not checked) [[Lys13(N-ε-#),Leu15] Gastrin-17] | 5 |

Molecular target: CCK2 receptor (gastrin receptor)
Assay: cell-based or functional assay
Remark: another data set of the same source

| Binder | Relative Receptor Potency |
| --- | --- |
| {C18 diacid-γGlu-AEEA-AEEA}-QGPWLEEEEEAYGWLDF-NH2 (ends and bridges not checked) [N-α-#-[Leu15] Gastrin-17] | 76 |
| {C18 diacid-γGlu-AEEA-AEEA}-YGWLDF-NH2 (ends and bridges not checked) [N-α-#-[Leu15] Gastrin-17 (12-17)] | 7 |
| {C18 diacid-γGlu-AEEA-AEEA}-EEEEAYGWLDF-NH2 (ends and bridges not checked) [N-α-#-[Leu15] Gastrin-17 (7-17)] | 39 |
| {C18 diacid-γGlu-AEEA-AEEA}-WLEEEEEAYGWLDF-NH2 (ends and bridges not checked) [N-α-#-[Leu15] Gastrin-17 (4-17)] | 58 |
| {C18 diacid-γGlu-AEEA-AEEA}-EEAYGWLDF-NH2 (ends and bridges not checked) [N-α-#-[Leu15] Gastrin-17 (9-17)] | 30 |
| B1 | 6 |
| B2 | 0 |
| B3 | 0 |
| QGPWLEEEEEAYGWLDF-NH2 (ends and bridges not checked) [[Leu15] Gastrin-17] | 100 |
| B4 | 0 |
